Laboratory results taken from patent publication US20190127447A1 (Ablynx, published 2019).

Molecular target: RSV F protein of the hRSV Memphis 37 strain (human respiratory syncytial virus …)
Assay: cell-based or functional assay

B1: SEQ ID NO: 71 (VHH)
chain: DVQLVESGGGLVQAGGSLSISCAASGGSLSNYVLGWFRQAPGKEREFVAAINWRGDITIGPPNVEGRFTISRDNAKNTGYLQMNSLAPDDTAVYYCGAGTPLNPGAYIYDWSYDYWGRGTQVTVSSGGGGSGGGGSGGGGSEVQLVESGGGLVQAGGSLSISCAASGGSLSNYVLGWFRQAPGKEREFVAAINWRGDITIGPPNVEGRFTISRDNAKNTGYLQMNSLAPDDTAVYYCGAGTPLNPGAYIYDWSYDYWGRGTQVTVSSGGGGSGGGGSGGGGSEVQLVESGGGLVQAGGSLSISCAASGGSLSNYVLGWFRQAPGKEREFVAAINWRGDITIGPPNVEGRFTISRDNAKNTGYLQMNSLAPDDTAVYYCGAGTPLNPGAYIYDWSYDYWGRGTQVTVSS
sensitivity in in vitro neutralization assays relative to RSV-B 18537: 6 fold
